From paper PMC6085368, “Structure of the essential peptidoglycan amidotransferase MurT/GatD complex from Streptococcus pneumoniae” (Nature Communications, 2018)
Changes are numbered by the printed parent chain.

Legend:
MurT/GatD [1] = molecular target: T1, MurT/GatD (Streptococcus pneumoniae, UniProt Q8DNZ8+Q8DNZ9); assay: coupled ATPase assay (pyruvate kinase / lactate dehydrogenase, NADH at […] nm), initial velocities; format: biochemical; conditions: 2 mM ATP, 10 mM L-Gln, 10 mM MgCl2, 150 mM NaCl, 50 mM HEPES, 2 mM TCEP, 1% DDM, pH 7.5, 30 °C; MurT active site; read-out: Initial velocities method / Apparent KM
T1 construct: co-expressed in E. coli BL21 Star (DE3) from modified pET-30; MurT with N-terminal poly-His tag (cleavage not mentioned), GatD untagged; MurT/GatD heterodimer (four complexes in the asymmetric unit); MurT residues 1-42 present but not visible
T1 sequence (Q8DNZ9 1-447): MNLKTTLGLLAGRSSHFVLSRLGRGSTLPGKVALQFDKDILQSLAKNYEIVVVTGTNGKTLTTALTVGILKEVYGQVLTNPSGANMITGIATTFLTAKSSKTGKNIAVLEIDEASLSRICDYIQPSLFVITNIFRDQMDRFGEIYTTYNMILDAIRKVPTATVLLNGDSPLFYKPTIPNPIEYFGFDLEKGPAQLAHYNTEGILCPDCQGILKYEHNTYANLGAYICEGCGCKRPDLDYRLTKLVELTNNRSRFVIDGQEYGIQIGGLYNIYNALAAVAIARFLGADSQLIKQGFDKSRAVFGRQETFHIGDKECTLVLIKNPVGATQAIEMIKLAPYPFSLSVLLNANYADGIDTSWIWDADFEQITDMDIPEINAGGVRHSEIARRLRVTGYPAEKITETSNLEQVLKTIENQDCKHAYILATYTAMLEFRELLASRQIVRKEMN
T1 sequence (Q8DNZ8 1-260): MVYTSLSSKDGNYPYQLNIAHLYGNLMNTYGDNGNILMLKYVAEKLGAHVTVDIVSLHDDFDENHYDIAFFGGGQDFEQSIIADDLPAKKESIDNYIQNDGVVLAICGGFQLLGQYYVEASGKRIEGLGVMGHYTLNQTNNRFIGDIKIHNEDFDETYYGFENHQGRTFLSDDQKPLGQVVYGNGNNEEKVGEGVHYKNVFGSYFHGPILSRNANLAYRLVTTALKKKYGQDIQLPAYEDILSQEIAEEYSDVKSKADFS

MurT/GatD [2] = molecular target: T1, MurT/GatD; assay: X-ray crystal structure, […] Å; format: binding; conditions: tentative assignment to residual density near GatD Cys107; no glutamine added, presumably carried over from E. coli
[3] = molecular target: MurT variants with substituted conserved residues ("in most cases"); assay: co-purification (metal-affinity chromatography of His-tagged MurT, SEC; SDS-PAGE with Coomassie stain, ratio of bands); His-tagged MurT (wild type or variant) co-expressed with untagged GatD in E. coli; lysate loaded on HisTrap FF in 50 mM HEPES pH 7.5, 300 mM NaCl, 10 mM MgCl2, 25 mM imidazole, 2 mM TCEP; then SEC
purified protein [4] = substrate: Nc1ncnc2c1ncn2[C@@H]1O[C@H](COP(=O)(O)OP(=O)(O)OP(=O)(O)O)[C@@H](O)[C@H]1O; assay: purified protein; format: biochemical, Streptococcus pneumoniae; conditions: 10 mM L-Gln, 10 μM lipid II (below its apparent KM), 10 mM MgCl2, 150 mM NaCl, 50 mM HEPES, 2 mM TCEP, 1% DDM, pH 7.5, 30 °C, MurT active site
purified protein [5] = substrate: NC(=O)CC[C@H](N)C(=O)O; assay: purified protein; format: biochemical, Streptococcus pneumoniae; conditions: 2 mM ATP, 10 μM lipid II (below its apparent KM), 10 mM MgCl2, 150 mM NaCl, 50 mM HEPES, 2 mM TCEP, 1% DDM, pH 7.5, 30 °C, GatD glutaminase site
[6] = molecular target: T2, MurT 4C4S variant (the four cysteines of the cysteine tetrad replaced by serines), with N-terminal … (Streptococcus pneumoniae, UniProt Q8DNZ9 1-447, 4C4S (Cys205 to Ser) | 4C4S (Cys208 to Ser) | 4C4S (Cys227 to Ser) | 4C4S …); assay: co-purification (metal-affinity chromatography of His-tagged MurT, SEC; SDS-PAGE with Coomassie stain, ratio of bands); His-tagged MurT (wild type or variant) co-expressed with untagged GatD in E. coli; lysate loaded on HisTrap FF in 50 mM HEPES pH 7.5, 300 mM NaCl, 10 mM MgCl2, 25 mM imidazole, 2 mM TCEP; then SEC; conditions: partners not purified
T2 construct: MurT, Streptococcus pneumoniae, with cysteines 205, 208, 227 and 230 replaced by serines; PDB 6FQB holds the wild-type parent; also called MT4C4S; 4C4S MurT/GatD; source: E. coli BL21 Star (DE3), co-expressed with GatD; purified (HisTrap, SEC); not shown: poly-histidine, N-terminal, kept
T2 sequence: T1 sequence (Q8DNZ9 1-447) with C205S, C208S, C227S, C230S

[7] = molecular target: T3, MurT from Streptococcus pneumoniae, wild type, with N-terminal poly-histidine tag (Streptococcus pneumoniae, UniProt Q8DNZ9 1-447); assay: as above; conditions: partners not purified
T3 construct: MurT, subunit of the lipid II amidotransferase MurT/GatD, Streptococcus pneumoniae; N-terminal region 1-42 present by mass spectrometry though not visible in the crystal; central domain 43-302, C-terminal domain 303-439; also called MT; source: E. coli BL21 Star (DE3), co-expressed with GatD from a modified pET-30 plasmid; purified (HisTrap, Q Sepharose, SEC; anion exchange omitted for activity …)
T3 sequence: T1 sequence (Q8DNZ9 1-447)

lipid II
Km (MurT/GatD [1]): 220 ± 60 µM

NC(=O)CC[C@H](N)C(=O)O [L-Gln]
X-ray crystal structure, 3.0 Å (MurT/GatD [2]): glutamine was thus tentatively placed in the residual density observed in GatD active site

GatD from Streptococcus pneumoniae, wild type, without tag (from UniProt Q8DNZ8 1-260) (enzyme)
ratio of MurT/GatD bands [3]: 1.78

B1: MurT/GatD (Streptococcus pneumoniae R6) (protein)
chain 1: T1 sequence (Q8DNZ9 1-447)
chain 2: T1 sequence (Q8DNZ8 1-260)
notes: co-expressed in E. coli BL21 Star (DE3) from modified pET-30; MurT with N-terminal poly-His tag (cleavage not mentioned), GatD untagged; MurT/GatD heterodimer (four complexes in the asymmetric unit); MurT residues 1-42 present but not visible
Km (purified protein [4]): 16 ± 2 µM | Km (purified protein [5]): 78 ± 8 µM

B2: GatD from Streptococcus pneumoniae, wild type, without tag (enzyme)
chain: T1 sequence (Q8DNZ8 1-260)
notes: GatD, class I glutaminase subunit of the MurT/GatD amidotransferase, Streptococcus pneumoniae; also called GD; GatDSpn; source: E. coli BL21 Star (DE3), co-expressed with His-tagged MurT from a modified pET-30 plasmid; co-purified with MurT (HisTrap, Q Sepharose, SEC)
ratio of the Coomassie-stained MurT/GatD bands after SDS-PAGE [6]: 1.4 | ratio of the Coomassie-stained MurT/GatD bands after SDS-PAGE [7]: 1.78
